Reference: patent US10519238 (dated 2019)

What was measured:
[1] = target: T1, recombinant murine galectin-1 (R&D Systems) (UniProt P16045 2-135); experiment: SPR (BIAcore)
T1 chain: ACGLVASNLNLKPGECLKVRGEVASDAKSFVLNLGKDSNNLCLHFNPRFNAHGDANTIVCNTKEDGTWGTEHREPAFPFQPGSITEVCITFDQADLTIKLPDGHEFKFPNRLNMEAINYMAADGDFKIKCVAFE

[2] = target: recombinant human galectin-1 (R&D Systems) (UniProt P09382 2-135); experiment: SPR (BIAcore)
Sequence of recombinant human galectin-1 (R&D Systems) (P09382 2-135): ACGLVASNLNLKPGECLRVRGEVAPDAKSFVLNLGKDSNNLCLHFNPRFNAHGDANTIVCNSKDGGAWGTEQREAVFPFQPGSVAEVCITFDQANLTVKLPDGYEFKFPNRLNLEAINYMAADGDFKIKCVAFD

B1: anti-Gal1 monoclonal antibody 8A12.H9.H10 (antibody, V domains shown)
VH: QAYLQQSGAELVRPGASVRMSCKASGYTFTRYNMHWVKQTPRQGLEWIGRIYPGNGDTSYNQKFKGKATLTVDKSSSTAYMQLSSLTSEDSAVYFCTVWDYWGQGTTLTVSS
VL: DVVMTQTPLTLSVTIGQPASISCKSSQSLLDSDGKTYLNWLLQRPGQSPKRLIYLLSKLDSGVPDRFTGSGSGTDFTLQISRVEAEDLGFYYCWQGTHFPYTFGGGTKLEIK
Kd [1]: 26.6 nM
Kd [2]: 71 nM
